Assay in all cases: cell-based or functional assay
One assay addresses hGLP-1R (Homo sapiens, UniProt P43220).
The target in assay [1] is T1, human GIP receptor (human) (UniProt P48546).
T1 sequence (looked up): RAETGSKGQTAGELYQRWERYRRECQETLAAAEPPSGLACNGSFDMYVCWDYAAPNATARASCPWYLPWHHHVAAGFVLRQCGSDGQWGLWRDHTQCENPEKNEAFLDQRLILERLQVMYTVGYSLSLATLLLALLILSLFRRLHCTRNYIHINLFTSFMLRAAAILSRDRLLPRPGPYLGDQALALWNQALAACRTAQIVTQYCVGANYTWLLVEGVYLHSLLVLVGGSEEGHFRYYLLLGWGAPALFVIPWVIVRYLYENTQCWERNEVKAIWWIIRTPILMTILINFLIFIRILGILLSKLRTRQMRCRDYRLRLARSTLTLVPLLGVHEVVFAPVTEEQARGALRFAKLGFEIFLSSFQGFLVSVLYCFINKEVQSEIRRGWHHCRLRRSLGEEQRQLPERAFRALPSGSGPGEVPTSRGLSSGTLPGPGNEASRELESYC

For assay [2], the target named is human glucagon receptor (human) (UniProt P47871).
human glucagon receptor (human), sequence (P47871 26-477): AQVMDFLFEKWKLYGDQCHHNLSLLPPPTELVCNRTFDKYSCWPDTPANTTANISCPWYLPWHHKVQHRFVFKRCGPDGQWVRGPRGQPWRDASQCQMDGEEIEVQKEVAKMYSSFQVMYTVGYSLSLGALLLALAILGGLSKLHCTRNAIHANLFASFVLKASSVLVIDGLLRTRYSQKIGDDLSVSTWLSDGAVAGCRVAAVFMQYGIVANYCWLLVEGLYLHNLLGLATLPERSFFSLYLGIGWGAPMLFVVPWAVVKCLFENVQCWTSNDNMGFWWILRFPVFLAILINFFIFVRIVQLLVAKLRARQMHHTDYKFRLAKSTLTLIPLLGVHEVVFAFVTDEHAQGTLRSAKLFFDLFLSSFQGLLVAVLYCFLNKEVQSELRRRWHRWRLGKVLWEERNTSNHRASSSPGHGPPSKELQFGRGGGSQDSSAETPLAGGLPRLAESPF

hGLP-1R, sequence (P43220 24-463): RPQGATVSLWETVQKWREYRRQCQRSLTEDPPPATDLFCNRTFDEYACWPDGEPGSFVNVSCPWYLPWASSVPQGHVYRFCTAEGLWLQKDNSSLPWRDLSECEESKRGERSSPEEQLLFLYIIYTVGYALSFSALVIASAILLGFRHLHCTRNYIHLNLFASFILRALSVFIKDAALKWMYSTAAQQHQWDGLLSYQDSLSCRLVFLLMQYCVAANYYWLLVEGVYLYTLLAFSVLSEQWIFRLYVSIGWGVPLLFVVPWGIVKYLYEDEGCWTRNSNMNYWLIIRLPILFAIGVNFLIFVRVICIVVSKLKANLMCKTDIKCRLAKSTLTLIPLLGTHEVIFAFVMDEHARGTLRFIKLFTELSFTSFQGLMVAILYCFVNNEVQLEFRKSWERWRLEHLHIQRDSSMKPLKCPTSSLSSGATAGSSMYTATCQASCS

B1: Example 1168 (peptide)
chain: YXQGTXTSDXXIXLDXKAQXEFIEXLIEGGPSSGAPPPSGGGE
modifications: non-natural residues, AEEA-γGlu-C18 diacid lysine acylation, C-terminal amide; synthetic construct; SITE 2: note = 2-Aminoisobutyric Acid; SITE 6: note = alpha-methyl-L-phenylalanine; SITE 10: note = 3-(4-Pyridyl)-L-alanine; SITE 11: note = alpha-methyl-L-serine; SITE 13: note = alpha-methyl-leucine; SITE 16: note = L-ornithine; SITE 17: note = Lysine is chemically modified th
As to B1, the Relative cAMP EC50 was 0.422 nM with hGLP-1R, 0.00839 nM in assay [1] and 2.63 nM in assay [2]. The cAMP Rel EC50 (in the presence of 1% HSA) was determined as 65.4 nM with hGLP-1R, 0.999 nM in assay [1] and 364 nM in assay [2].

B2: Example 1175 (peptide)
chain: YXQGTXTSDXXIXLDXKAQXEFIEXLIEGGPSSGEPPPSGGGE
modifications: Aib, αMe residues, 4Pal, Orn, Me4Pal; acylated K; amide; synthetic construct; SITE 2: note = 2-Aminoisobutyric Acid; SITE 6: note = alpha-methyl-L-phenylalanine; SITE 10: note = 3-(4-Pyridyl)-L-alanine; SITE 11: note = alpha-methyl-L-serine; SITE 13: note = alpha-methyl-leucine; SITE 16: note = L-ornithine; SITE 17: note = Lysine is chemically modified th
As to B2, the Relative cAMP EC50 was 0.572 nM with hGLP-1R, 0.00962 nM in assay [1] and 2.08 nM in assay [2]. Besides, the cAMP Rel EC50 (in the presence of 1% HSA) in the assay with hGLP-1R came out at 60.7 nM; in assay [1] it was 0.768 nM; in assay [2], 282 nM.

B3: Example 1169 (peptide)
chain: YXQGTXTSDXXIXLDXKAQXEFIEXLIEGGPSSGEPPPSGGGE
modifications: non-natural residues; acylated Lys C18 diacid; C-term amide; synthetic construct; SITE 2: note = 2-Aminoisobutyric Acid; SITE 6: note = alpha-methyl-L-phenylalanine; SITE 10: note = 3-(4-Pyridyl)-L-alanine; SITE 11: note = alpha-methyl-L-serine; SITE 13: note = alpha-methyl-leucine; SITE 16: note = L-ornithine; SITE 17: note = Lysine is chemically modified th
As for B3, the Relative cAMP EC50 is 0.613 nM in the assay with hGLP-1R, 0.011 nM in assay [1] and 2.43 nM in assay [2]. For the same molecule, the figures for the cAMP Rel EC50 (in the presence of 1% HSA) (with hGLP-1R; in assay [1]; in assay [2]) were 80 nM, 1.18 nM and 304 nM, respectively.

B4: Example 1174 (peptide)
chain: YXQGTXTSDXXIXLDXKAQXEFIEXLIEGGPSSGAPPPSGGGE
modifications: non-natural residues (Aib, αMeF, 4Pal, Orn, Me4Pal); lipidated Lys; C-amide; synthetic construct; SITE 2: note = 2-Aminoisobutyric Acid; SITE 6: note = alpha-methyl-L-phenylalanine; SITE 10: note = 3-(4-Pyridyl)-L-alanine; SITE 11: note = alpha-methyl-L-serine; SITE 13: note = alpha-methyl-leucine; SITE 16: note = L-ornithine; SITE 17: note = Lysine is chemically modified th
Turning to B4, the figures for the Relative cAMP EC50 (with hGLP-1R; in assay [1]; in assay [2]) were 0.454 nM, 0.00896 nM and 2.58 nM, respectively. The cAMP Rel EC50 (in the presence of 1% HSA) is 60.2 nM in the assay with hGLP-1R, 0.707 nM in assay [1] and 347 nM in assay [2].

B5: Example 1156 (peptide)
chain: YXQGTXTSDXXIXLDXKAQXEFIEXLVEGGPSSGAPPPESE
modifications: not fully specified; acylated lysine AEEA-γGlu-C18 diacid; non-natural residues; C-terminal amide; synthetic construct; SITE 2: note = 2-Aminoisobutyric Acid; SITE 6: note = alpha-methyl-2-fluoro-L-phenylalanine; SITE 10: note = 3-(4-Pyridyl)-L-alanine; SITE 11: note = alpha-methyl-L-serine; SITE 13: note = alpha-methyl-leucine; SITE 16: note = L-ornithine; SITE 17: note = Lysine is chemically mo
B5: the values for the Relative cAMP EC50 (in the assay with hGLP-1R; in assay [1]; in assay [2]) were 0.444 nM, 0.0127 nM and 2.94 nM, respectively. Further, the cAMP Rel EC50 (in the presence of 1% HSA) with hGLP-1R turned out to be 47.1 nM; in assay [1], 1.33 nM; in assay [2], 337 nM.

B6: Example 1160 (peptide)
chain: YXQGTXTSDXXIXLDXKAQXEFIEXLVEGGPSSGAPPPSGE
modifications: C-terminal amide; lysine acylated with (γ-Glu)2-C18 diacid; synthetic construct; SITE 2: note = 2-Aminoisobutyric Acid; SITE 6: note = alpha-methyl-2-fluoro-L-phenylalanine; SITE 10: note = 3-(4-Pyridyl)-L-alanine; SITE 11: note = alpha-methyl-L-serine; SITE 13: note = alpha-methyl-leucine; SITE 16: note = L-ornithine; SITE 17: note = Lysine is chemically mo
Regarding B6, the results for the Relative cAMP EC50 (with hGLP-1R; in assay [1]; in assay [2]) were 0.365 nM, 0.00773 nM and 2.41 nM, respectively. The results for the cAMP Rel EC50 (in the presence of 1% HSA) (with hGLP-1R; in assay [1]; in assay [2]) were 31.2 nM, 0.598 nM and 183 nM, respectively.

B7: Example 1157 (peptide)
chain: YXQGTXTSDXXIXLDXKAQXEFIEXLVEGGPSSGEPPPESE
modifications: not fully specified; non-natural residues; lipidated Lys; C-terminal amide; synthetic construct; SITE 2: note = 2-Aminoisobutyric Acid; SITE 6: note = alpha-methyl-2-fluoro-L-phenylalanine; SITE 10: note = 3-(4-Pyridyl)-L-alanine; SITE 11: note = alpha-methyl-L-serine; SITE 13: note = alpha-methyl-leucine; SITE 16: note = L-ornithine; SITE 17: note = Lysine is chemically mo
Regarding B7, the Relative cAMP EC50 came to 0.408 nM with hGLP-1R, 0.0124 nM in assay [1] and 2.04 nM in assay [2]. The values for the cAMP Rel EC50 (in the presence of 1% HSA) (with hGLP-1R; in assay [1]; in assay [2]) were 57.5 nM, 1.28 nM and 384 nM, respectively.

B8: Example 1164 (peptide)
chain: YXQGTXTSDXXIXLDXKAQXEFIEXLIEGGPSSGAPPPSGE
modifications: non-natural residues; acylated Lys C18 diacid; C-term amide; synthetic construct; SITE 2: note = 2-Aminoisobutyric Acid; SITE 6: note = alpha-methyl-L-phenylalanine; SITE 10: note = 3-(4-Pyridyl)-L-alanine; SITE 11: note = alpha-methyl-L-serine; SITE 13: note = alpha-methyl-leucine; SITE 16: note = L-ornithine; SITE 17: note = Lysine is chemically modified th
On to B8, for which the Relative cAMP EC50 turned out to be 0.495 nM in the assay with hGLP-1R, 0.0104 nM in assay [1] and 2.83 nM in assay [2]. The cAMP Rel EC50 (in the presence of 1% HSA) with hGLP-1R was found to be 63.5 nM; in assay [1], 1.17 nM; in assay [2], 359 nM.

B9: Example 1161 (peptide)
chain: YXQGTXTSDXXIXLDXKAQXEFIEXLVEGGPSSGEPPPSGE
modifications: Aib, αMeF(2F), 4Pal, αMeS, αMeL, Orn, Me4Pal, αMeY; lipidated Lys; amide; synthetic construct; SITE 2: note = 2-Aminoisobutyric Acid; SITE 6: note = alpha-methyl-2-fluoro-L-phenylalanine; SITE 10: note = 3-(4-Pyridyl)-L-alanine; SITE 11: note = alpha-methyl-L-serine; SITE 13: note = alpha-methyl-leucine; SITE 16: note = L-ornithine; SITE 17: note = Lysine is chemically mo
As to B9, the Relative cAMP EC50 was found to be 0.39 nM with hGLP-1R, 0.00973 nM in assay [1] and 2.19 nM in assay [2]. The cAMP Rel EC50 (in the presence of 1% HSA) in the assay with hGLP-1R turned out to be 35.5 nM; in assay [1], 0.733 nM; in assay [2], 217 nM.

B10: Example 1159 (peptide)
chain: YXQGTXTSDXXIXLDXKAQXEFIEXLVEGGPSSGEPPPEGE
modifications: Aib, αMeF(2F), 4Pal, Me4Pal, Orn; lipidated Lys; C-terminal amide; synthetic construct; SITE 2: note = 2-Aminoisobutyric Acid; SITE 6: note = alpha-methyl-2-fluoro-L-phenylalanine; SITE 10: note = 3-(4-Pyridyl)-L-alanine; SITE 11: note = alpha-methyl-L-serine; SITE 13: note = alpha-methyl-leucine; SITE 16: note = L-ornithine; SITE 17: note = Lysine is chemically mo
B10: the Relative cAMP EC50 with hGLP-1R is 0.45 nM; in assay [1] it was 0.0118 nM; in assay [2] it was 1.86 nM. Further, the cAMP Rel EC50 (in the presence of 1% HSA) amounted to 64.1 nM with hGLP-1R, 1.29 nM in assay [1] and 238 nM in assay [2].

Source of the values: patent publication US20240270821A1, “GIP/GLP1/GCG TRI-RECEPTOR AGONISTS AND USES THEREOF” (priority 2023, published 2024).
